Reference: patent US20240241124

Columns and labels:
[1] = target: SecV sensor (version not stated)
[2] = target: T1, SecV sensor, EDANS/DABCYL version (β-sec^V1 strand annealed to ES3) (not fully specified)
T1 chain: RKFEADLNVEERC

[3] = target: T2, SecV sensor, HiLyte-Fluor 488/QXL520 version (β-sec^V2 strand annealed to ES3) (not fully specified)
T2 chain: KFEADLNVEKC

B1: recombinant human BACE1 (beta-site APP cleaving enzyme 1), purified enzyme (ab271386, Abcam) (protein)
chain: TQHGIRLPLRSGLGGAPLGLRLPRETDEEPEEPGRRGSFVEMVDNLRGKSGQGYYVEMTVGSPPQTLNILVDTGSSNFAVGAAPHPFLHRYYQRQLSSTYRDLRKGVYVPYTQGKWEGELGTDLVSIPHGPNVTVRANIAAITESDKFFINGSNWEGILGLAYAEIARPDDSLEPFFDSLVKQTHVPNLFSLQLCGAGFPLNQSEVLASVGGSMIIGGIDHSLYTGSLWYTPIRREWYYEVIIVRVEINGQDLKMDCKEYNYDKSIVDSGTTNLRLPKKVFEAAVKSIKAASSTEKFPDGFWLGEQLVCWQAGTTPWNIFPVISLYLMGEVTNQSFRITILPQQYLRPVEDVATSQDDCYKFAISQSSTGTVMGAVIMEGFYVVFDRARKRIGFAVSACHVHDEFRTAAVEGPFVTLDMEDCGYNIPQTDESTLMT
- lowest amount of BACE1 giving detectable change in sensor signal [1]: The SecV sensor showed detectable changes in signal from 8 ng and remains linear until 80 ng
- upper end of linear range of sensor signal against amount of BACE1 [1]: The SecV sensor showed detectable changes in signal from 8 ng and remains linear until 80 ng
- fold change in sensor response (G/R ratio), in vitro BACE1 activity assay [2]: A >3.0-fold change in sensor response was observed when EDANS and DABCYL were used as a FRET pair
- fold change in sensor response (G/R ratio), in vitro BACE1 activity assay [3]: a >1.8-fold response when HyLite-488 and QXL520 were used as a FRET pair
- fold change in the signal (G/R ratio), in vitro specificity assay [3]: upon addition of BACE1 the sensor showed a 1.8-fold change in the signal
